In article PMC10786891, “Massively parallel profiling of RNA-targeting CRISPR-Cas13d”:
Where a chain is given by its changes, count along the chain named. In names and notes the source's numbering stands.

B1: target 2 MT 5'PFS GUG 3'PFS UGU (mixed)
RNA 1: CACCCGUGCAAAAUUGCAGGGGUCUAAAACCUUCUCCAAAUUGUUUCAUCCU
RNA 2: GGGAAUGGAUCCACAUCUACGAAUUCGUGAGGAUGAAACAAUUUGGAGAAGUGUAGAUCGGAAGAGCACACGU
B2: target 2 MT 5'PFS GCA 3'PFS AAA (mixed)
RNA 1: B1 RNA 1
RNA 2: B1 RNA 2 with U28C, G29A, U52A, G53A, U54A
B3: target 2 MT 5'PFS UCG 3'PFS CAG (mixed)
RNA 1: B1 RNA 1
RNA 2: B1 RNA 2 with G27U, U28C, U52C, G53A, U54G
B4: target 2 MT 5'PFS CUG 3'PFS ACC (mixed)
RNA 1: B1 RNA 1
RNA 2: B1 RNA 2 with G27C, U52A, G53C, U54C
B5: target 2 MT 5'PFS CUC 3'PFS CUA (mixed)
RNA 1: B1 RNA 1
RNA 2: B1 RNA 2 with G27C, G29C, U52C, G53U, U54A
B6: target 2 MT 5'PFS GCG 3'PFS AGC (mixed)
RNA 1: B1 RNA 1
RNA 2: B1 RNA 2 with U28C, U52A, U54C
B7: target 2 MT 5'PFS ACU 3'PFS AAC (mixed)
RNA 1: B1 RNA 1
RNA 2: B1 RNA 2 with G27A, U28C, G29U, U52A, G53A, U54C
B8: target 2 MT 5'PFS GAU 3'PFS AGU (mixed)
RNA 1: B1 RNA 1
RNA 2: B1 RNA 2 with U28A, G29U, U52A
B9: target 2 MT 5'PFS GCG 3'PFS AGA (mixed)
RNA 1: B1 RNA 1
RNA 2: B1 RNA 2 with U28C, U52A, U54A
B10: target 2 MT 5'PFS CUG 3'PFS ACA (mixed)
RNA 1: B1 RNA 1
RNA 2: B1 RNA 2 with G27C, U52A, G53C, U54A
B11: target 2 MT 5'PFS UCG 3'PFS ACG (mixed)
RNA 1: B1 RNA 1
RNA 2: B1 RNA 2 with G27U, U28C, U52A, G53C, U54G
B12: target 2 MT 5'PFS GCG 3'PFS AGU (mixed)
RNA 1: B1 RNA 1
RNA 2: B1 RNA 2 with U28C, U52A
B13: target 2 MT 5'PFS GAU 3'PFS AGA (mixed)
RNA 1: B1 RNA 1
RNA 2: B1 RNA 2 with U28A, G29U, U52A, U54A
B14: target 2 MT 5'PFS ACG 3'PFS CAU (mixed)
RNA 1: B1 RNA 1
RNA 2: B1 RNA 2 with G27A, U28C, U52C, G53A
B15: target 2 MT 5'PFS GCC 3'PFS AAU (mixed)
RNA 1: B1 RNA 1
RNA 2: B1 RNA 2 with U28C, G29C, U52A, G53A
B16: target 2 MT 5'PFS ACG 3'PFS CAC (mixed)
RNA 1: B1 RNA 1
RNA 2: B1 RNA 2 with G27A, U28C, U52C, G53A, U54C
B17: target 2 MT 5'PFS ACU 3'PFS AAG (mixed)
RNA 1: B1 RNA 1
RNA 2: B1 RNA 2 with G27A, U28C, G29U, U52A, G53A, U54G
B18: target 2 MT 5'PFS CGC 3'PFS ACA (mixed)
RNA 1: B1 RNA 1
RNA 2: B1 RNA 2 with G27C, U28G, G29C, U52A, G53C, U54A
B19: target 2 MT 5'PFS ACU 3'PFS AAA (mixed)
RNA 1: B1 RNA 1
RNA 2: B1 RNA 2 with G27A, U28C, G29U, U52A, G53A, U54A
B20: target 2 MT 5'PFS CGC 3'PFS ACU (mixed)
RNA 1: B1 RNA 1
RNA 2: B1 RNA 2 with G27C, U28G, G29C, U52A, G53C
B21: target 2 MT 5'PFS CGC 3'PFS ACG (mixed)
RNA 1: B1 RNA 1
RNA 2: B1 RNA 2 with G27C, U28G, G29C, U52A, G53C, U54G
B22: target 2 MT 5'PFS CUC 3'PFS CUG (mixed)
RNA 1: B1 RNA 1
RNA 2: B1 RNA 2 with G27C, G29C, U52C, G53U, U54G
B23: target 2 MT 5'PFS GCA 3'PFS AAC (mixed)
RNA 1: B1 RNA 1
RNA 2: B1 RNA 2 with U28C, G29A, U52A, G53A, U54C
B24: target 2 MT 5'PFS ACG 3'PFS CAG (mixed)
RNA 1: B1 RNA 1
RNA 2: B1 RNA 2 with G27A, U28C, U52C, G53A, U54G
B25: target 2 MT 5'PFS UCG 3'PFS CAC (mixed)
RNA 1: B1 RNA 1
RNA 2: B1 RNA 2 with G27U, U28C, U52C, G53A, U54C
B26: target 2 MT 5'PFS GUC 3'PFS GAC (mixed)
RNA 1: B1 RNA 1
RNA 2: B1 RNA 2 with G29C, U52G, G53A, U54C
B27: target 2 MT 5'PFS CUG 3'PFS ACG (mixed)
RNA 1: B1 RNA 1
RNA 2: B1 RNA 2 with G27C, U52A, G53C, U54G
B28: target 2 MT 5'PFS GAU 3'PFS AGG (mixed)
RNA 1: B1 RNA 1
RNA 2: B1 RNA 2 with U28A, G29U, U52A, U54G
B29: target 2 MT 5'PFS ACU 3'PFS AAU (mixed)
RNA 1: B1 RNA 1
RNA 2: B1 RNA 2 with G27A, U28C, G29U, U52A, G53A
B30: target 2 MT 5'PFS GCA 3'PFS AAG (mixed)
RNA 1: B1 RNA 1
RNA 2: B1 RNA 2 with U28C, G29A, U52A, G53A, U54G
B31: target 2 MT 5'PFS UCG 3'PFS CAA (mixed)
RNA 1: B1 RNA 1
RNA 2: B1 RNA 2 with G27U, U28C, U52C, G53A, U54A
B32: target 2 MT 5'PFS CGC 3'PFS ACC (mixed)
RNA 1: B1 RNA 1
RNA 2: B1 RNA 2 with G27C, U28G, G29C, U52A, G53C, U54C
B33: target 2 MT 5'PFS GCG 3'PFS AGG (mixed)
RNA 1: B1 RNA 1
RNA 2: B1 RNA 2 with U28C, U52A, U54G
B34: target 2 MT 5'PFS CUG 3'PFS ACU (mixed)
RNA 1: B1 RNA 1
RNA 2: B1 RNA 2 with G27C, U52A, G53C
B35: target 1 A9U,G13U (mixed)
RNA 1: CACCCGUGCAAAAAUGCAGGGGUCUAAAACUGAGCGGAUAACCUCUCUAUGG
RNA 2: GGGAAUGGAUCCACAUCUACGAAUUCGUACCAUAGAGAUGUUUUCCGCUCACCGAGAUCGGAAGAGCACACGU
B36: target 1 insA 3' of 2,insG 3' of 2 (mixed)
RNA 1: B35 RNA 1
RNA 2: GGGAAUGGAUCCACAUCUACGAAUUCGUACCAUAGAGAGGUUAUCCGCUCAGACCGAGAUCGGAAGAGCACACGU
B37: target 1 insG 3' of 16,insU 3' of 12 (mixed)
RNA 1: B35 RNA 1
RNA 2: GGGAAUGGAUCCACAUCUACGAAUUCGUACCAUAGAGGAGGUUUAUCCGCUCACCGAGAUCGGAAGAGCACACGU
B38: target 1 G13C,A14C (mixed)
RNA 1: B35 RNA 1
RNA 2: B35 RNA 2 with A38C, U39C, U43A

Target: T1, EsCas13d, nuclease-dead (Eubacterium siraeum, UniProt B0MS50, R295A;H300A;R849A;H854A)
T1 sequence: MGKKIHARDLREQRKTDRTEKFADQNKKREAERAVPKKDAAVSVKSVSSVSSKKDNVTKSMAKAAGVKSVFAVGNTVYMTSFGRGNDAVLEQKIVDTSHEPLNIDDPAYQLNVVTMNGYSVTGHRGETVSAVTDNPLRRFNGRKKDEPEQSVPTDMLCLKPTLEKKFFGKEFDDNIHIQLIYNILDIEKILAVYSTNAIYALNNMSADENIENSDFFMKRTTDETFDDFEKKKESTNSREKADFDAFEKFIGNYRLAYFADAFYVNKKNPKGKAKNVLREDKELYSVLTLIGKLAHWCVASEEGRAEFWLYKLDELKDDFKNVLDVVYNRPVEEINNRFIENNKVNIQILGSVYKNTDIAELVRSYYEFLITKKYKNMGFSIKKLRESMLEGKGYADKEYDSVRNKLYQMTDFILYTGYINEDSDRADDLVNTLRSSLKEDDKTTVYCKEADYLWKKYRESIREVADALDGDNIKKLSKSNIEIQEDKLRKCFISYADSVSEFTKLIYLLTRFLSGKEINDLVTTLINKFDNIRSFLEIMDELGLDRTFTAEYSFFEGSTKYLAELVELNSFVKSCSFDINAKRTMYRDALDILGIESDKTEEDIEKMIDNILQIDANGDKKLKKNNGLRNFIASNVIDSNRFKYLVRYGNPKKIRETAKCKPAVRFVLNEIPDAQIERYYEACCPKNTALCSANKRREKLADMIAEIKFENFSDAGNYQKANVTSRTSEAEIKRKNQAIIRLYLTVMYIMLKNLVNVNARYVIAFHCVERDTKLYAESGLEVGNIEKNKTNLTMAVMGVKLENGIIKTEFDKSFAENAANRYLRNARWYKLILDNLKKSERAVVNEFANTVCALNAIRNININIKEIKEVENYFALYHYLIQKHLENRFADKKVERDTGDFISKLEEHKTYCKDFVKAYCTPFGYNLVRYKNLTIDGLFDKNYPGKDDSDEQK
Experiment: crRNA (strand 1, pre-loaded); Mg2+; 40 mM Tris-HCl pH 7.5, 150 mM NaCl, 6 mM MgCl2, 1 mM DTT, 0.1% Tween-20, 0.2 mg/ml BSA; 25 C; 10 min per concentration, then washed
Details: tags: His6-TwinStrep-SUMO cleaved; N-terminal SNAP kept (SNAP-Surface 488); label: 3' end held by stalled T7 RNA polymerase

Binder | Kd [nM]
B1 | 27 ± 2.4
B2 | 6.5 ± 2
B3 | 18.7 ± 2.6
B4 | 5.6 ± 1.2
B5 | 2.02 ± 0.29
B6 | 9.7 ± 1.6
B7 | 5.7 ± 0.8
B8 | 12.3 ± 2
B9 | 7.6 ± 1
B10 | 3.9 ± 0.5
B11 | 45 ± 9
B12 | 11.6 ± 2.1
B13 | 8 ± 1.1
B14 | 5.5 ± 0.6
B15 | 18 ± 5
B16 | 5.7 ± 1.2
B17 | 3.7 ± 0.5
B18 | 11 ± 5
B19 | 4.7 ± 1.7

Binder | Kd [nM]
B20 | 6 ± 0.8
B21 | 5.2 ± 0.7
B22 | 4.4 ± 1.5
B23 | 11.9 ± 3.3
B24 | 7.7 ± 1.4
B25 | 27 ± 8
B26 | 12.2 ± 2.8
B27 | 2.89 ± 0.25
B28 | 10.4 ± 1
B29 | 4.1 ± 0.5
B30 | 7.8 ± 1.2
B31 | 10.7 ± 1.9
B32 | 18 ± 4
B33 | 16.2 ± 2.8
B34 | 4.5 ± 0.8
B35 | 53 ± 8
B36 | 10.5 ± 1.2
B37 | 12.3 ± 0.9
B38 | 50 ± 9
